Experimental data from US20260167699A1 (Chugai, published 2026).
Changes are numbered by the printed parent chain.

T1: FcγRIIa(R) extracellular domain, C-terminal His tag (human, UniProt P12318 34-217)
T1 construct: extracellular domain; Allotype R131; also called 2aR
T1 sequence: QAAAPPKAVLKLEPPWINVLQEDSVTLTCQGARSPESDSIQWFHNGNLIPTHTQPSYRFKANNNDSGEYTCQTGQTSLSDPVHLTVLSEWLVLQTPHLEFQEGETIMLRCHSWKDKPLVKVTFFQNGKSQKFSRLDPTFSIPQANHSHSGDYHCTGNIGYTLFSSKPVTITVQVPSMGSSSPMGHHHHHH

T2: FcγRIIb extracellular domain, C-terminal His tag (human, UniProt P31994 43-217)
T2 construct: extracellular domain; also called 2b
T2 sequence: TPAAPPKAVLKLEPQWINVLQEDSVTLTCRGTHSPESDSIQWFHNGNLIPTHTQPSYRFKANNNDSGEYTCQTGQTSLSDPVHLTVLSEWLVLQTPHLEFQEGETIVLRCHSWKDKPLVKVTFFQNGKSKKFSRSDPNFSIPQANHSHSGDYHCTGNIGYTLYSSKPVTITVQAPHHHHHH

T3: FcγRIIa(H) extracellular domain, C-terminal His tag (human, UniProt P12318 34-217)
T3 construct: extracellular domain; Allotype H131; also called 2aH
T3 sequence: T1 sequence with R134H

B1: GpH7-A5/GpH7-B3 variant K326_02A/GpL16-k0 (antibody, human IgG1, kappa)
heavy 1: not shown
heavy 2: not shown
light: DIVMTQSPLSLPVTPGEPASISCQASESLVHSNRNTYLHWYLQKPGQSPQLLIYKVSNRFSGVPDRFSGSGSGTDFTLKISRVEAEDVGVYYCSQNTHVPPTFGQGTKVEIERTVAAPSVFIFPPSDEQLKSGTASVVCLLNNFYPREAKVQWKVDNALQSGNSQESVTEQDSKDSTYSLSSTLTLSKADYEKHKVYACEVTHQGLSSPVTKSFNRGEC
notes: He Ab: anti-glypican 3 IgG1 heterodimer, only the GpH7-B3 chain mutated; position in EU numbering; also called He Ab
B2: GpH7-A5/GpH7-B3 variant K326_15Y/GpL16-k0 (antibody, human IgG1, kappa)
heavy 1: not shown
heavy 2: not shown
light: B1 light
notes: as for B1
B3: GpH7-A5/GpH7-B3 variant L328_06M/GpL16-k0 (antibody, human IgG1, kappa)
heavy 1: not shown
heavy 2: not shown
light: B1 light
notes: as for B1
B4: GpH7-A5/GpH7-B3 variant K326_09D/GpL16-k0 (antibody, human IgG1, kappa)
heavy 1: not shown
heavy 2: not shown
light: B1 light
notes: as for B1
B5: GpH7-A5/GpH7-B3 variant K326_14T/GpL16-k0 (antibody, human IgG1, kappa)
heavy 1: not shown
heavy 2: not shown
light: B1 light
notes: as for B1
B6: GpH7-A5/GpH7-B3 variant L328_14T/GpL16-k0 (antibody, human IgG1, kappa)
heavy 1: not shown
heavy 2: not shown
light: B1 light
notes: as for B1
B7: GpH7-A5/GpH7-B3 variant K326_16H/GpL16-k0 (antibody, human IgG1, kappa)
heavy 1: not shown
heavy 2: not shown
light: B1 light
notes: as for B1
B8: GpH7-A5/GpH7-B3 variant N325_09D/GpL16-k0 (antibody, human IgG1, kappa)
heavy 1: not shown
heavy 2: not shown
light: B1 light
notes: as for B1
B9: GpH7-A5/GpH7-B3 variant L328_07I/GpL16-k0 (antibody, human IgG1, kappa)
heavy 1: not shown
heavy 2: not shown
light: B1 light
notes: as for B1
B10: GpH7-A5/GpH7-B3 variant K326_08L/GpL16-k0 (antibody, human IgG1, kappa)
heavy 1: not shown
heavy 2: not shown
light: B1 light
notes: as for B1
B11: GpH7-A5/GpH7-B3 variant K326_12R/GpL16-k0 (antibody, human IgG1, kappa)
heavy 1: not shown
heavy 2: not shown
light: B1 light
notes: as for B1
B12: GpH7-A5/GpH7-B3 variant L328_13S/GpL16-k0 (antibody, human IgG1, kappa)
heavy 1: not shown
heavy 2: not shown
light: B1 light
notes: as for B1
B13: GpH7-A5/GpH7-B3 variant L328_19Q/GpL16-k0 (antibody, human IgG1, kappa)
heavy 1: not shown
heavy 2: not shown
light: B1 light
notes: as for B1
B14: GpH7-A5/GpH7-B3 variant N325_16H/GpL16-k0 (antibody, human IgG1, kappa)
heavy 1: not shown
heavy 2: not shown
light: B1 light
notes: as for B1
B15: GpH7-A5/GpH7-B3 variant L328_03V/GpL16-k0 (antibody, human IgG1, kappa)
heavy 1: not shown
heavy 2: not shown
light: B1 light
notes: as for B1
B16: GpH7-A5/GpH7-B3 variant K326_19Q/GpL16-k0 (antibody, human IgG1, kappa)
heavy 1: not shown
heavy 2: not shown
light: B1 light
notes: as for B1
B17: GpH7-A5/GpH7-B3 variant K326_05P/GpL16-k0 (antibody, human IgG1, kappa)
heavy 1: not shown
heavy 2: not shown
light: B1 light
notes: as for B1
B18: GpH7-A5/GpH7-B3 variant L328_02A/GpL16-k0 (antibody, human IgG1, kappa)
heavy 1: not shown
heavy 2: not shown
light: B1 light
notes: as for B1
B19: GpH7-A5/GpH7-B3 variant K326_18N/GpL16-k0 (antibody, human IgG1, kappa)
heavy 1: not shown
heavy 2: not shown
light: B1 light
notes: as for B1
B20: GpH7-A5/GpH7-B3 variant K326_10E/GpL16-k0 (antibody, human IgG1, kappa)
heavy 1: not shown
heavy 2: not shown
light: B1 light
notes: as for B1
B21: GpH7-A5/GpH7-B3 variant N325_13S/GpL16-k0 (antibody, human IgG1, kappa)
heavy 1: not shown
heavy 2: not shown
light: B1 light
notes: as for B1
B22: GpH7-A5/GpH7-B3 variant K326_04F/GpL16-k0 (antibody, human IgG1, kappa)
heavy 1: not shown
heavy 2: not shown
light: B1 light
notes: as for B1
B23: GpH7-A5/GpH7-B3 variant L328_16H/GpL16-k0 (antibody, human IgG1, kappa)
heavy 1: not shown
heavy 2: not shown
light: B1 light
notes: as for B1
B24: GpH7-A5/GpH7-B3 variant K326_07I/GpL16-k0 (antibody, human IgG1, kappa)
heavy 1: not shown
heavy 2: not shown
light: B1 light
notes: as for B1
B25: GpH7-A5/GpH7-B3 variant K326_03V/GpL16-k0 (antibody, human IgG1, kappa)
heavy 1: not shown
heavy 2: not shown
light: B1 light
notes: as for B1
B26: GpH7-A5/GpH7-B3 variant K326_13S/GpL16-k0 (antibody, human IgG1, kappa)
heavy 1: not shown
heavy 2: not shown
light: B1 light
notes: as for B1
B27: GpH7-A5/GpH7-B3 variant L328_15Y/GpL16-k0 (antibody, human IgG1, kappa)
heavy 1: not shown
heavy 2: not shown
light: B1 light
notes: as for B1
B28: GpH7-A5/GpH7-B3 variant K326_06M/GpL16-k0 (antibody, human IgG1, kappa)
heavy 1: not shown
heavy 2: not shown
light: B1 light
notes: as for B1
B29: GpH7-A5/GpH7-B3 variant L328_18N/GpL16-k0 (antibody, human IgG1, kappa)
heavy 1: not shown
heavy 2: not shown
light: B1 light
notes: as for B1
B30: GpH7-A5/GpH7-B3 variant L328_04F/GpL16-k0 (antibody, human IgG1, kappa)
heavy 1: not shown
heavy 2: not shown
light: B1 light
notes: as for B1

molecular target: T1, FcγRIIa(R) extracellular domain, …; experiment: SPR (Biacore); binding relative to GpH7-A5/GpH7-B3/GpL16-k0 x100;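 also: antibodies captured on a chip surface, soluble FcγR flowed over in HBS-EP+ running buffer at 25 °C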
Protocol: (§1) The antibody of interest was analyzed for its interaction with FcγR using a BiaCore™ T100, BiaCore™ A100, or BiaCore™ 4000 surface plasmon resonance system (GE Healthcare Japan Corp.). The running buffer used was HBS-EP+ (GE Healthcare Japan Corp.). The assay temperature was set to 25° C. The sensor chips used were: a chip prepared by immobilizing antigenic peptides onto Series S Sensor Chip CM5 (GE Healthcare Japan Corp.) by the amine coupling method; a chip prepared by immobilizing antigenic peptides biotinylated in advance onto Series S Sensor Chip SA (certified) (GE Healthcare Japan Corp.) through their interaction; a chip prepared by immobilizing protein L (ACTIGEN, BioVision, Inc.) onto Series S Sensor Chip CM5 (GE Healthcare Japan Corp.); and a chip prepared by immobilizing protein A/G (Thermo Fisher Scientific K.K.) onto Series S Sensor Chip CM5 (GE Healthcare Japan Corp.). The antibody of interest was captured onto any of these chips and allowed to interact with FcγR diluted with a running buffer. The antibody captured on the chip was washed off through the reaction of 10 mM glycine-HCl (pH 1.5) to regenerate the chip, which was repetitively used.

Row | He/Con 2aR | Binder
1 | 125% | B1
2 | 131% | B2
3 | 148% | B3
4 | 142% | B4
5 | 128% | B5
6 | 153% | B6
7 | 115% | B7
8 | 111% | B8
9 | 160% | B9
10 | 131% | B10
11 | 98.6% | B11
12 | 150% | B12
13 | 115% | B13
14 | 85.3% | B14
15 | 150% | B15
16 | 124% | B16
17 | 118% | B17
18 | 150% | B18
19 | 110% | B19
20 | 142% | B20
21 | 137% | B21
22 | 129% | B22
23 | 106% | B23
24 | 141% | B24
25 | 135% | B25
26 | 119% | B26
27 | 174% | B27
28 | 132% | B28
29 | 76.4% | B29
30 | 177% | B30

molecular target: T2, FcγRIIb extracellular domain, …; experiment: as above
Protocol: as §1

Row | He/Con 2b | Binder
31 | 156% | B1
32 | 179% | B2
33 | 176% | B3
34 | 216% | B4
35 | 168% | B5
36 | 176% | B6
37 | 133% | B7
38 | 139% | B8
39 | 200% | B9
40 | 198% | B10
41 | 100% | B11
42 | 186% | B12
43 | 131% | B13
44 | 78.5% | B14
45 | 157% | B15
46 | 156% | B16
47 | 141% | B17
48 | 180% | B18
49 | 118% | B19
50 | 224% | B20
51 | 198% | B21
52 | 174% | B22
53 | 100% | B23
54 | 223% | B24
55 | 196% | B25
56 | 139% | B26
57 | 240% | B27
58 | 185% | B28
59 | 101% | B29
60 | 273% | B30

molecular target: T4, FcγRIa extracellular domain, C-terminal His tag (human, UniProt P12314 16-292); experiment: as above
T4 construct: extracellular domain; also called 1a
T4 sequence (P12314 other isoform, or with tags, fused parts or gaps): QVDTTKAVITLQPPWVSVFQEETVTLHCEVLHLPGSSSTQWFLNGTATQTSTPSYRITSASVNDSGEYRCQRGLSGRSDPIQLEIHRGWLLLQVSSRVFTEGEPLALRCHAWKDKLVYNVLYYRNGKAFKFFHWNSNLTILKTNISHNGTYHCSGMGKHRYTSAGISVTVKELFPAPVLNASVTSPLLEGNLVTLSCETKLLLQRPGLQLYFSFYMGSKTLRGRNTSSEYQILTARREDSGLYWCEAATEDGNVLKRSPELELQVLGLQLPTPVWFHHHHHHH
Protocol: as §1

Row | He/Con 1a | Binder
61 | 107% | B1
62 | 111% | B2
63 | 101% | B3
64 | 109% | B4
65 | 109% | B5
66 | 103% | B6
67 | 109% | B7
68 | 105% | B8
69 | 102% | B9
70 | 105% | B10
71 | 105% | B11
72 | 101% | B12
73 | 104% | B13
74 | 99.9% | B14
75 | 103% | B15
76 | 108% | B16
77 | 106% | B17
78 | 101% | B18
79 | 110% | B19
80 | 109% | B20
81 | 102% | B21
82 | 107% | B22
83 | 98.5% | B23
84 | 106% | B24
85 | 107% | B25
86 | 106% | B26
87 | 104% | B27
88 | 108% | B28
89 | 101% | B29
90 | 100% | B30

molecular target: T3, FcγRIIa(H) extracellular domain, …; experiment: as above
Protocol: as §1

Row | He/Con 2aH | Binder
91 | 110% | B1
92 | 102% | B2
93 | 122% | B3
94 | 115% | B4
95 | 119% | B5
96 | 138% | B6
97 | 102% | B7
98 | 55.3% | B8
99 | 111% | B9
100 | 96.5% | B10
101 | 105% | B11
102 | 146% | B12
103 | 103% | B13
104 | 50% | B14
105 | 116% | B15
106 | 106% | B16
107 | 103% | B17
108 | 154% | B18
109 | 113% | B19
110 | 106% | B20
111 | 83% | B21
112 | 101% | B22
113 | 84.5% | B23
114 | 104% | B24
115 | 101% | B25
116 | 110% | B26
117 | 106% | B27
118 | 108% | B28
119 | 80.6% | B29
120 | 84.9% | B30

molecular target: T5, FcγRIIIa extracellular domain, C-terminal His tag (human, UniProt P08637 17-208); experiment: as above
T5 construct: extracellular domain; also called 3a
T5 sequence (P08637 other isoform, or with tags, fused parts or gaps): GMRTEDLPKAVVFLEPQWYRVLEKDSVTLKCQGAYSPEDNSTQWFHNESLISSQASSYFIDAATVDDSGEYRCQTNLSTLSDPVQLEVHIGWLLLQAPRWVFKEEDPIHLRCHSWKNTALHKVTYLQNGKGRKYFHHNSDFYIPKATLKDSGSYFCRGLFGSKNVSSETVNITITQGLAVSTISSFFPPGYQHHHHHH
Protocol: as §1

Row | He/Con 3a | Binder
121 | 130% | B1
122 | 124% | B2
123 | 80.8% | B3
124 | 148% | B4
125 | 140% | B5
126 | 77.4% | B6
127 | 106% | B7
128 | 53% | B8
129 | 86.4% | B9
130 | 126% | B10
131 | 101% | B11
132 | 73.7% | B12
133 | 83.4% | B13
134 | 68% | B14
135 | 80.9% | B15
136 | 117% | B16
137 | 117% | B17
138 | 81.3% | B18
139 | 134% | B19
140 | 138% | B20
141 | 71.9% | B21
142 | 114% | B22
143 | 55.9% | B23
144 | 153% | B24
145 | 135% | B25
146 | 118% | B26
147 | 70.2% | B27
148 | 127% | B28
149 | 51.1% | B29
150 | 81.5% | B30
